Data taken from patent publication US7867500B2, “Cofactor that modulates steroid receptor activities” (The United States of America as represented by the …, priority 2004, dated 2011).
Each block holds one molecule with its values, some of them ahead of it.

Tests used:
[1] = test system: GR repression of an AP-1 induced gene; assay: GR-mediated repression of PMA-induced AP-1/Luc reporter in U2OS.rGR cells; assay type: cell-based; details: for fold repression of PMA-induced AP-1 expression by Dex-bound GR: 25 μM PMA ± 0.1 μM Dex, TIF2 20 ng, STAMP 100 ng plasmid
Experimental: FIG. 5A-F illustrate STAMP modulation of GR-mediated repression. […] U2OS.rGR cells were transiently transfected with ±TIF2 (20 ng)±STAMP (100 ng) plasmids, AP-1/Luc reporter (20 ng), and Renilla control (10 ng) plasmid. The cells were induced with ethanol (EtOH) or 25 μM PMA±0.1 μM Dex. […] The average values±S.E.M. of four experiments are plotted. The numbers in parentheses above the bars labeled “PMA+Dex” represent the average fold repression caused by Dex± the various factors.
FIG. 5B illustrates that functional TIF2 is needed for optimal STAMP activity. U2OS.rGR cells were transiently transfected and processed as described for FIG. 5A but less STAMP (50 ng) was used and two concentrations of TIF2 or TIF2m123 (10 and 20 ng) were employed. The average values±S.E.M. of 4-5 experiments are plotted. An asterisk indicates a significant difference (P≦0.031) between samples containing equal amounts of TIF2 and TIF2m123.
Rogatsky et al. have reported that TIF2 augments GR repression of an AP-1 induced gene. […] The TIF2 domain identified as having TIF2 activity in GR repression was the same as used to isolate STAMP. In order to determine if STAMP was active in GR-mediated gene repression as well as induction, the ability of STAMP to increase the repressive activity of GR in the AP-1 responsive whole cell bioassay system was assessed using U2OS.rGR cells.

[2] = biological target: T1, glucocorticoid receptor (GR) (Rattus norvegicus, UniProt P06536); assay: GR-mediated induction of GREtkLUC reporter, transient transfection of CV-1 cells
T1 sequence (P06536 1-795): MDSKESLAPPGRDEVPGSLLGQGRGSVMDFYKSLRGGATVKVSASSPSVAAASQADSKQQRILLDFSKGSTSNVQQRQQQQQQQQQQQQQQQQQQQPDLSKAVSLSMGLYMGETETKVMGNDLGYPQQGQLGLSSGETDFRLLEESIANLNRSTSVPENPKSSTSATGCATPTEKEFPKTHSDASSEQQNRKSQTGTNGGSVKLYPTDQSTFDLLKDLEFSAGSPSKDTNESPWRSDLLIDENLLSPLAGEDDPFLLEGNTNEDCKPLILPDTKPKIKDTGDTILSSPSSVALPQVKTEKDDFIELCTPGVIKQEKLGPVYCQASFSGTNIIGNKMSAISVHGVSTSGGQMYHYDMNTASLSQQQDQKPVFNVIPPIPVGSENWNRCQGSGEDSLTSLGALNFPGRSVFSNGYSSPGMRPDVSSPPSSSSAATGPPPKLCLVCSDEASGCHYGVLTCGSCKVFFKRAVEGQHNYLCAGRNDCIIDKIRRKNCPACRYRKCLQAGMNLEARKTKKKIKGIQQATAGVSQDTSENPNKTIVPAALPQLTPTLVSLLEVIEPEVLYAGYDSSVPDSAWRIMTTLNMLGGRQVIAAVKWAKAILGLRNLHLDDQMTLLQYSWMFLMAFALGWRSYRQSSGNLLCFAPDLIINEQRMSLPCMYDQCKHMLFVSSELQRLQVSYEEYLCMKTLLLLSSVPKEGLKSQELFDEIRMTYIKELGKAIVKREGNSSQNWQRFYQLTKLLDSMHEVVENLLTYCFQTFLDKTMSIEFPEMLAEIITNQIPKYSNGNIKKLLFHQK
Experimental: Triplicate samples of CV-1 cells were transiently transfected with GR (6 ng)±TIF2 (20 ng)±STAMP (160 ng) plasmids, GREtkLUC reporter, and Renilla control plasmid. […] FIG. 4B illustrates the fold changes in GR induction parameters by STAMP and TIF2. […] The fold-increase in each parameter was determined as follows: for EC50s, fold increase=[EC50]GR/[EC50]GR+factor; for partial agonist activity and fold Dex induction, fold increase=activityGR+factor/activityGR). The average fold increases were then plotted±S.E.M (n=4).
CV-1 cells were transiently transfected with GR (6 ng)±TIF2 (20 ng)±STAMP (160 ng) plasmids, GREtkLUC reporter, and Renilla control plasmid, and induced with ethanol± the indicated concentrations of Dex.
Tests were run to determine whether exogenous STAMP can modulate the EC50 of glucocorticoids and the partial agonist activity of antiglucocorticoids in the transient transfection assays where GR induced gene expression from a GREtkLUC reporter.

GR = biological target: T2, GR (Rattus norvegicus, UniProt P06536); assay: Mammalian two-hybrid assay in CV-1 cells with VP16/GR; assay type: cell-based; details: VP16/GR ± 1 μM Dex
T2 construct: plus VP16 fused to the indicated full length receptors; expressed in transfected cells; host or cells: CV-1
T2 sequence (P06536 1-795): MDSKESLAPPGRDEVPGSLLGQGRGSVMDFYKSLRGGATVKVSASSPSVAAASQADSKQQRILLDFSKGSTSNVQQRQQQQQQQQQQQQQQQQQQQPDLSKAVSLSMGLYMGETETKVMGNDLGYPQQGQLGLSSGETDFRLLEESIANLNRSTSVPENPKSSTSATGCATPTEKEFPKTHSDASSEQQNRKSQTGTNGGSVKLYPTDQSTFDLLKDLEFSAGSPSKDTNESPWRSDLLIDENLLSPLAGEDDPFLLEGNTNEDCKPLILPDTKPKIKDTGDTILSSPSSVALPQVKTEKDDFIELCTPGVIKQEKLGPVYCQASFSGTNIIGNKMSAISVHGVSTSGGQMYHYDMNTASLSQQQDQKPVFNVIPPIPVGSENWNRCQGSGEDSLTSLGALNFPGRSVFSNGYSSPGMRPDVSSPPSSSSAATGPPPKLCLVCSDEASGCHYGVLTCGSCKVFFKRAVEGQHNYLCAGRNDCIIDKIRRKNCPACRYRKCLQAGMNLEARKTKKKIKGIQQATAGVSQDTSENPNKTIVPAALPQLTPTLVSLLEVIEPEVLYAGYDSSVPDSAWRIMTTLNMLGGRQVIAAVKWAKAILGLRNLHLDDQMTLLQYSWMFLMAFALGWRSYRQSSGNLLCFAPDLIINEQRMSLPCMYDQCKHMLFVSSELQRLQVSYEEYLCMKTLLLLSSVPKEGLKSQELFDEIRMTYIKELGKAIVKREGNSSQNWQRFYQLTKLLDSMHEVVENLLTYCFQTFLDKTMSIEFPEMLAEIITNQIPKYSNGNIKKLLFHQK
Description: FIGS. 6A and 6B illustrate the domains of STAMP that interact with TIF2.4 (FIG. 6A) and GR (FIG. 6B) in the mammalian two-hybrid assay. […] These CV-1 cells were also transfected with GAL fused to the indicated segments of STAMP along with the FRLuc reporter and Renilla control plasmids. After determining the relative luciferase activities as described in FIG. 2B and 2C, the average values±S.E.M. from 2-5 experiments were plotted. The average fold increase for VP16/TIF2.4 with GAL/STAMP(623-834) in FIG. 6A was 11.0±3.0 (SEM, n=5) above the VP16 control. The values in parentheses above the data bars in FIG. 6B indicate the fold increased interaction ±1 μM Dex.
These assays were conducted as described (He et al., 2002). In particular, the recommended procedure for the Mammalian Matchmaker two-hybrid assay kit (Clontech) was modified slightly by changing from a chloramphenicol acetyltransferase reporter to a Luciferase Reporter pFRLuc (Stratagene), which is under the control of five repeats of the upstream activating sequence for the binding of GAL4.

[3] = in the presence of transfected GR and TIF2

Molecule: C[C@@H]1C[C@H]2[C@@H]3CCC4=CC(=O)C=C[C@]4(C)[C@@]3(F)[C@@H](O)C[C@]2(C)[C@@]1(O)C(=O)CO [dexamethasone]
- fold repression of PMA-induced AP-1 expression by Dex-bound GR [1]: about 5 fold

B2: 956-1127: STAMP fragment amino acids 956 to 1127, portion of the RID region (protein)
chain: LPRCRSGSHTIGPFSSFQSAAHIYSQKLSRPSSAKAGSCYLNKHHSGIAKTQKEGEDASLYSKRYNQSMVTAELQRLAEKQAARQYSPSSHINLLTQQVTNLNLATGIINRSSASAPPTLRPIISPSGPTWSTQSDPQAPENHSSSPGSRSLQTGGFAWEGEVENNVYSQAT
modifications: GAL4 DBD fusion
notes: STAMP fragment amino acids 956 to 1127, portion of the RID region
- interaction with GR (GR): largest agonist-induced changes

B4: STAMP623C: STAMP fragment amino acids 623 to 1277, CID and RID but no TTL domain (protein)
chain: ENTPKENSMKVREWNNKGGHCCKLETQELEPKFNLMQILQDNGNLSKMQARIAFSAYLQHVQIRLMKDSGGQTFSASWAAKEDEQMELVVRFLKRASNNLQHSLRMVLPSRRLALLERRRILAHQLGDFIIVYNKETEQMAEKKSKKKVEEEEEDGVNMENFQEFIRQASEAELEEVLTFYTQKNKSASVFLGTHSKISKNNNNYSDSGAKGDHPETIMEEVKIKPPKQQQTTEIHSDKLSRFTTSAEKEAKLVYSNSSSGPTATLQKIPNTHLSSVTTSDLSPGPCHHSSLSQIPSAIPSMPHQPTILLNTVSASASPCLHPGAQNIPSPTGLPRCRSGSHTIGPFSSFQSAAHIYSQKLSRPSSAKAGSCYLNKHHSGIAKTQKEGEDASLYSKRYNQSMVTAELQRLAEKQAARQYSPSSHINLLTQQVTNLNLATGIINRSSASAPPTLRPIISPSGPTWSTQSDPQAPENHSSSPGSRSLQTGGFAWEGEVENNVYSQATGVVPQHKYHPTAGSYQLQFALQQLEQQKLQSRQLLDQSRARHQAIFGSQTLPNSNLWTMNNGAGCRISSATASGQKPTTLPQKVVPPPSSCASLVPKPPPNHEQVLRRATSQKASKGSSAEGQLNGLQSSLNPAASVPITSSTDPAHTKI
- ability to increase the partial agonist activity of Dex-Mes, retained [2, 3]: 40%
- capacity of full length STAMP to increase the fold induction with Dex, retained [2, 3]: 85%

B5: STAMP(834-956): STAMP fragment amino acids 834-956, N-terminal portion of the RID (protein)
chain: GDHPETIMEEVKIKPPKQQQTTEIHSDKLSRFTTSAEKEAKLVYSNSSSGPTATLQKIPNTHLSSVTTSDLSPGPCHHSSLSQIPSAIPSMPHQPTILLNTVSASASPCLHPGAQNIPSPTGL
modifications: GAL4 DBD fusion
notes: STAMP fragment amino acids 834-956, N-terminal portion of the RID
- interaction with GR (GR): substantial ligand-independent association

More lines, main results first:

- effect on GR dose-response curve and induction parameters ([2]; TIF2 alone (FIG. 4A1)): similar, small effect
Molecule: TIF2: glucocorticoid receptor coactivator transcription intermediary factor-2
- fold repression of PMA-induced AP-1 expression by Dex-bound GR [1]: about 9 fold
- fold induction by PMA ([1]; 25 μM PMA, no Dex): unchanged

- interaction with GR (GR): largest agonist-induced changes
B1: 1127C: STAMP fragment amino acids 1127 to 1277, C-terminal part of the RID (protein)
chain: TGVVPQHKYHPTAGSYQLQFALQQLEQQKLQSRQLLDQSRARHQAIFGSQTLPNSNLWTMNNGAGCRISSATASGQKPTTLPQKVVPPPSSCASLVPKPPPNHEQVLRRATSQKASKGSSAEGQLNGLQSSLNPAASVPITSSTDPAHTKI
modifications: GAL4 DBD fusion
notes: STAMP fragment amino acids 1127 to 1277, C-terminal part of the RID

- interaction with GR (GR): relative inactivity
B3: GAL/N834: STAMP fragment amino acids 1-834, TTL domain and CID region (protein)
chain: MARDLEETASSSEDEEVISQEDHPCIMWTGGCRRIPVLVFHADAILTKDNNIRVIGERYHLSYKIVRTDSRLVRSILTAHGFHEVHPSSTDYNLMWTGSHLKPFLLRTLSEAQKVNHFPRSYELTRKDRLYKNIIRMQHTHGFKVFHILPQTFLLPAEYAEFCNSYSKDRGPWIVKPVASSRGRGVYLINNPNQISLEENILVSRYINNPLLIDDFKFDVRLYVLVTSYDPLVIYLYEEGLARFATVRYDQGAKNIRNQFMHLTNYSVNKKSGDYVSCDDPEVEDYGNKWSMSAMLRYLKQEGRDTTALMAHVEDLIIKTIISAELAIATACKTFVPHRSSCFELYGFDVLIDSTLKPWLLEVNLSPSLACDAPLDLKIKASMISDMFTVVGFVCQDPAQRASTRPIYPTFESSRRNPFQKPQRCRPLSASDAEMKNLVGSAREKGPGKLGGSVLGLSMEEIKVLRRVKEENDRRGGFIRIFPTSETWEIYGSYLEHKTSMNYMLATRLFQDRMTADGAPELKIESLNSKAKLHAALYERKLLSLEVRKRRRRSSRLRAMRPKYPVITQPAEMNVKTETESEEEEEVALDNEDEEQEASQEESAGFLRENQAKYTPSLTALVENTPKENSMKVREWNNKGGHCCKLETQELEPKFNLMQILQDNGNLSKMQARIAFSAYLQHVQIRLMKDSGGQTFSASWAAKEDEQMELVVRFLKRASNNLQHSLRMVLPSRRLALLERRRILAHQLGDFIIVYNKETEQMAEKKSKKKVEEEEEDGVNMENFQEFIRQASEAELEEVLTFYTQKNKSASVFLGTHSKISKNNNNYSDSGAKG
modifications: GAL4 DBD fusion
notes: STAMP fragment amino acids 1-834, TTL domain and CID region
